Assay results as given in patent publication US20240270846A1 (published 2024).

Target: T1, CD3 epsilon homodimer protein (UniProt P07766 23-126)
T1 construct: construct not described; homodimer as printed; also called CD3 (CD3 epsilon)
Experiment: SPR Biacore T200, CD3 epsilon homodimer immobilized; vs unaltered GLS3000;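 further: antibody variants flowed as analyte over CD3 epsilon homodimer amine-coupled to a CM4 chip, at 25 °C in HBS-EP+ running buffer, fitted with Biacore T200 Evaluation Software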

T1 sequence (P07766 23-126): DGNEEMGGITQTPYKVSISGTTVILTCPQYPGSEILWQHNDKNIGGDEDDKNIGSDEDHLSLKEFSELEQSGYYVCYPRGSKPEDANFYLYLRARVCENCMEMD

| KD ratio to GLS3000 (Affinity up) | Binder |
| --- | --- |
| 0.79 | GLS3000 S25P (Kabat) L chain altered form, one-arm antibody with CE115HA000 (antibody, human IgG1, kappa, L234A L235A, N297A, name in Kabat numbering, one-arm antibody) heavy: QVQLVESGGGVVQPGRSLRLSCAASGFTFSNAWMHWVRQAPGKGLEWVAQIKAKSNNYATYYAESVKGRFTISRDDSKNSLYLQMNSLKTEDTAVYYCRYVHYGAYYGVDAWGQGTTVTVSSASTKGPSVFPLAPSSKSTSGGTAALGCLVKDYFPEPVTVSWNSGALTSGVHTFPAVLQSSGLYSLSSVVTVPSSSLGTQTYICNVNHKPSNTKVDKKVEPKSCDKTHTCPPCPAPEAAGGPSVFLFPPKPKDTLMISRTPEVTCVVVDVSHEDPEVKFNWYVDGVEVHNAKTKPREEQYASTYRVVSVLTVLHQDWLNGKEYKCKVSNKALPAPIEKTISKAKGQPREPQVYTLPPSRCELTKNQVSLSCAVKGFYPSDIAVEWESNGQPENNYKTTPPVLDSDGSFFLVSKLTVDKSRWQQGNVFSCSVMHEALHNHYTQKSLSLSPDYKDDDDK EPKSSDKTHTCPPCPAPELLGGPSVFLFPPKPKDTLMISRTPEVTCVVVDVSHEDPEVKFNWYVDGVEVHNAKTKPREEQYNSTYRVVSVLTVLHQDWLNGKEYKCKVSNKALPAPIEKTISKAKGQPREPQVCTLPPSRDELTKNQVSLWCLVKGFYPSDIAVEWESNGQPENNYKTTPPVLDSDGSFFLYSKLTVDKSRWQQGNVFSCSVMHEALHNRYTQKSLSLSP light: DIVMTQSPLSLPVTPGEPASISCRPSQSLVHSNRNTYLHWYQQKPGQAPRLLIYKVSNRFSGVPDRFSGSGSGTDFTLKISRVEAEDVGVYYCGQGTQVPYTFGQGTKLEIKRTVAAPSVFIFPPSDEQLKSGTASVVCLLNNFYPREAKVQWKVDNALQSGNSQESVTEQDSKDSTYSLSSTLTLSKADYEKHKVYACEVTHQGLSSPVTKSFNRGEC |
| 0.75 | GLS3000 S25T (Kabat) L chain altered form, one-arm antibody with CE115HA000 (antibody, human IgG1, kappa, L234A L235A, N297A, name in Kabat numbering, one-arm antibody) heavy: QVQLVESGGGVVQPGRSLRLSCAASGFTFSNAWMHWVRQAPGKGLEWVAQIKAKSNNYATYYAESVKGRFTISRDDSKNSLYLQMNSLKTEDTAVYYCRYVHYGAYYGVDAWGQGTTVTVSSASTKGPSVFPLAPSSKSTSGGTAALGCLVKDYFPEPVTVSWNSGALTSGVHTFPAVLQSSGLYSLSSVVTVPSSSLGTQTYICNVNHKPSNTKVDKKVEPKSCDKTHTCPPCPAPEAAGGPSVFLFPPKPKDTLMISRTPEVTCVVVDVSHEDPEVKFNWYVDGVEVHNAKTKPREEQYASTYRVVSVLTVLHQDWLNGKEYKCKVSNKALPAPIEKTISKAKGQPREPQVYTLPPSRCELTKNQVSLSCAVKGFYPSDIAVEWESNGQPENNYKTTPPVLDSDGSFFLVSKLTVDKSRWQQGNVFSCSVMHEALHNHYTQKSLSLSPDYKDDDDK EPKSSDKTHTCPPCPAPELLGGPSVFLFPPKPKDTLMISRTPEVTCVVVDVSHEDPEVKFNWYVDGVEVHNAKTKPREEQYNSTYRVVSVLTVLHQDWLNGKEYKCKVSNKALPAPIEKTISKAKGQPREPQVCTLPPSRDELTKNQVSLWCLVKGFYPSDIAVEWESNGQPENNYKTTPPVLDSDGSFFLYSKLTVDKSRWQQGNVFSCSVMHEALHNRYTQKSLSLSP light: DIVMTQSPLSLPVTPGEPASISCRTSQSLVHSNRNTYLHWYQQKPGQAPRLLIYKVSNRFSGVPDRFSGSGSGTDFTLKISRVEAEDVGVYYCGQGTQVPYTFGQGTKLEIKRTVAAPSVFIFPPSDEQLKSGTASVVCLLNNFYPREAKVQWKVDNALQSGNSQESVTEQDSKDSTYSLSSTLTLSKADYEKHKVYACEVTHQGLSSPVTKSFNRGEC |
| 1.06 | GLS3000 S26D (Kabat) L chain altered form, one-arm antibody with CE115HA000 (antibody, human IgG1, kappa, L234A L235A, N297A, name in Kabat numbering, one-arm antibody) heavy: QVQLVESGGGVVQPGRSLRLSCAASGFTFSNAWMHWVRQAPGKGLEWVAQIKAKSNNYATYYAESVKGRFTISRDDSKNSLYLQMNSLKTEDTAVYYCRYVHYGAYYGVDAWGQGTTVTVSSASTKGPSVFPLAPSSKSTSGGTAALGCLVKDYFPEPVTVSWNSGALTSGVHTFPAVLQSSGLYSLSSVVTVPSSSLGTQTYICNVNHKPSNTKVDKKVEPKSCDKTHTCPPCPAPEAAGGPSVFLFPPKPKDTLMISRTPEVTCVVVDVSHEDPEVKFNWYVDGVEVHNAKTKPREEQYASTYRVVSVLTVLHQDWLNGKEYKCKVSNKALPAPIEKTISKAKGQPREPQVYTLPPSRCELTKNQVSLSCAVKGFYPSDIAVEWESNGQPENNYKTTPPVLDSDGSFFLVSKLTVDKSRWQQGNVFSCSVMHEALHNHYTQKSLSLSPDYKDDDDK EPKSSDKTHTCPPCPAPELLGGPSVFLFPPKPKDTLMISRTPEVTCVVVDVSHEDPEVKFNWYVDGVEVHNAKTKPREEQYNSTYRVVSVLTVLHQDWLNGKEYKCKVSNKALPAPIEKTISKAKGQPREPQVCTLPPSRDELTKNQVSLWCLVKGFYPSDIAVEWESNGQPENNYKTTPPVLDSDGSFFLYSKLTVDKSRWQQGNVFSCSVMHEALHNRYTQKSLSLSP light: DIVMTQSPLSLPVTPGEPASISCRSDQSLVHSNRNTYLHWYQQKPGQAPRLLIYKVSNRFSGVPDRFSGSGSGTDFTLKISRVEAEDVGVYYCGQGTQVPYTFGQGTKLEIKRTVAAPSVFIFPPSDEQLKSGTASVVCLLNNFYPREAKVQWKVDNALQSGNSQESVTEQDSKDSTYSLSSTLTLSKADYEKHKVYACEVTHQGLSSPVTKSFNRGEC |
| 0.74 | GLS3000 S25V (Kabat) L chain altered form, one-arm antibody with CE115HA000 (antibody, human IgG1, kappa, L234A L235A, N297A, name in Kabat numbering, one-arm antibody) heavy: QVQLVESGGGVVQPGRSLRLSCAASGFTFSNAWMHWVRQAPGKGLEWVAQIKAKSNNYATYYAESVKGRFTISRDDSKNSLYLQMNSLKTEDTAVYYCRYVHYGAYYGVDAWGQGTTVTVSSASTKGPSVFPLAPSSKSTSGGTAALGCLVKDYFPEPVTVSWNSGALTSGVHTFPAVLQSSGLYSLSSVVTVPSSSLGTQTYICNVNHKPSNTKVDKKVEPKSCDKTHTCPPCPAPEAAGGPSVFLFPPKPKDTLMISRTPEVTCVVVDVSHEDPEVKFNWYVDGVEVHNAKTKPREEQYASTYRVVSVLTVLHQDWLNGKEYKCKVSNKALPAPIEKTISKAKGQPREPQVYTLPPSRCELTKNQVSLSCAVKGFYPSDIAVEWESNGQPENNYKTTPPVLDSDGSFFLVSKLTVDKSRWQQGNVFSCSVMHEALHNHYTQKSLSLSPDYKDDDDK EPKSSDKTHTCPPCPAPELLGGPSVFLFPPKPKDTLMISRTPEVTCVVVDVSHEDPEVKFNWYVDGVEVHNAKTKPREEQYNSTYRVVSVLTVLHQDWLNGKEYKCKVSNKALPAPIEKTISKAKGQPREPQVCTLPPSRDELTKNQVSLWCLVKGFYPSDIAVEWESNGQPENNYKTTPPVLDSDGSFFLYSKLTVDKSRWQQGNVFSCSVMHEALHNRYTQKSLSLSP light: DIVMTQSPLSLPVTPGEPASISCRVSQSLVHSNRNTYLHWYQQKPGQAPRLLIYKVSNRFSGVPDRFSGSGSGTDFTLKISRVEAEDVGVYYCGQGTQVPYTFGQGTKLEIKRTVAAPSVFIFPPSDEQLKSGTASVVCLLNNFYPREAKVQWKVDNALQSGNSQESVTEQDSKDSTYSLSSTLTLSKADYEKHKVYACEVTHQGLSSPVTKSFNRGEC |
